Consider 17 molecules from US20230272055A1 (Incyte, published 2023).

The chains are these.
B1: anti-mutCALR antibody clone 48 (antibody, human IgG1, lambda, V domains shown)
VH: EVQLVQSGAEVKKPGSSVKVSCKASGGTFSSYAISWVRQAPGQGLEWMGGIIPIFGTANYAQKFQGRVTITADESTSTAYMELSSLRSEDTAVYYCASSPLRGSGWYWHYYYGMDVWGQGTTVTVSS
VL: SYVLTQPPSVSVAPGKTARITCGGNNIGSKSVHWYQQKPGQAPVLVIYQDRKRPSGIPERFSGSNSGNTATLTISGTQAMDEADYYCQAWDSSTAVFGGGTKLTVLG
notes: human IgG1
B2: anti-mutCALR antibody clone 49 (antibody, human IgG1, lambda, V domains shown)
VH: EVQLVQSGAEVKKPGSSVKVSCKASGGTFSSYAISWVRQAPGQGLEWMGGIIPIFGTANYAQKFQGRVTITADESTSTAYMELSSLRSEDTAVYYCASSPLRGSGWYWHYYYGMDVWGQGTTVTVSS
VL: SYELTQPPSVSVAPGKTARITCGGNNIRAKHVHWYQQKPGQSPVLVIYQDSKRPSGIPERFSGSNSGSTATLTISRVEAGDEADYYCQVWDSSTVVFGGGTKLTVLG
notes: human IgG1
B3: anti-mutCALR antibody clone 47 (antibody, human IgG1, lambda, V domains shown)
VH: EVQLVQSGAEVKKPGSSVKVSCKASGGTFSSYAISWVRQAPGQGLEWMGGIIPIFGTANYAQKFQGRVTITADESTSTAYMELSSLRSEDTAVYYCASSPLRGSGWYWHYYYGMDVWGQGTTVTVSS
VL: SYELTQPPSVSVAPGKTARITCGGNKIGTKSVHWYQQKPGQAPVLVIYRDSNRPSGIPERFSGSNSGNTATLTISRAQAGDEADYYCQVWDSSTVVFGGGTKLTVLG
notes: human IgG1
B4: anti-mutCALR antibody clone 44 (antibody, human IgG1, lambda, V domains shown)
VH: EVQLVQSGAEVKKPGSSVKVSCKASGGTFSSYAISWVRQAPGQGLEWMGGIIPIFGTANYAQKFQGRVTITADESTSTAYMELSSLRSEDTAVYYCASSPLRGSGWYWHYYYGMDVWGQGTTVTVSS
VL: SYVLTQPPSVSAAPGKTARISCGGNNIRSKSVHWYQQKAGQAPVLVIYQDSKRPSGIPERFSGSNSGNTATLTISGTQAMDEADYYCQAWDSNTVVFGGGTKLTVLG
notes: human IgG1
B5: anti-mutCALR antibody clone 45 (antibody, human IgG1, lambda, V domains shown)
VH: EVQLVQSGAEVKKPGSSVKVSCKASGGTFSSYAISWVRQAPGQGLEWMGGIIPIFGTANYAQKFQGRVTITADESTSTAYMELSSLRSEDTAVYYCASSPLRGSGWYWHYYYGMDVWGQGTTVTVSS
VL: SYVLTQPLSVSVAPGQTARITCGGNNIGRKSVHWYQQKPGQAPVLVIYRDSNRPSGIPERFSGSNSGNTATLTISRAQAGDEADYYCQVWDSSTVVFGGGTKLTVLG
notes: human IgG1
B6: anti-mutCALR antibody clone 52 (antibody, human IgG1, kappa, V domains shown)
VH: EVQLVQSGAEVKKPGASVKVSCKVSGYTLTELSMHWVRQAPGKGLEWMGLVDPEDGETIYAEKFQGRVTITADTSTDTAYMELSSPRSEDTAVYYCATTIGDDYFDYWGQGTLVTVSS
VL: not shown
notes: human IgG1
B7: anti-mutCALR antibody clone 38 (antibody, human IgG1, kappa, V domains shown)
VH: EVQPVQSGAEVKKPGSSVKVSCKASGGTFSSYAISWVRQAPGQGLEWMGLVDPEDGETIYAEKFRGRVTITADTSTDTAYMELSSLRSEDTAVYYCATEESYGPWGQGTLVTVSS
VL: DIQLTQSPSSLSASVGDRVTITCQASQDISNYLNWYQQKPGKAPKLLIYDASNLETGVPSRFSGSGSGTEFTLTISSLQPEDFATYYCQQLNSYPLTFGGGTKLEIKR
notes: human IgG1
B8: anti-mutCALR antibody clone 39 (antibody, human IgG1, kappa, V domains shown)
VH: EVQLVQSGAEVKKPGSSVKVSCKASGGTFSSYAISWVRQAPGQGLEWMGLVDPEDGETIYAEKFQGRVTITADTSTDTAYMELSSLRSEDTAVYYCATEESYGPWGQGTLVTVSS
VL: DIQLTQSPSSLSASVGDRVTITCQASQDISNYLDWYQQKPGKAPKLLIYDASNLETGVPSRFSGSGSGTEFTLTISSLQPEDFATYYCQQLNSYPLTFGGGTKLEIKR
notes: human IgG1
B9: anti-mutCALR antibody clone 40 (antibody, human IgG1, lambda, V domains shown)
VH: EVQLVQSGAEVKKPGASVKVSCKVSGYTLTESSMHWVRQAPGKGLEWMGLVDPEDGETIYAQKFQGRVTMTEDTSTDTAYMELSSLRSEDTAVYYCAREEWSGDGDDAFDIWGQGTMVTVSS
VL: QSVLTQPPSVSAAPGQKVTISCSGSSSNIGSYSVSWYQQLPGTAPKLLIYDNNKRPSGIPDRFSGSNSGTSATLGITGLQTGDEADYYCGTWDSSLSAWVFGGGTKLTVLG
notes: human IgG1
B10: anti-mutCALR antibody clone 37 (antibody, human IgG1, lambda, V domains shown)
VH: QVQLVQSGAEVKKPGATVKISCKVSGYSFTDYFIHWVQQAPGKGLAWVGLVDPEDGETIYAEKFQGRVTITADTSTDTAYMELSSLRSEDTAVYYCATPGGILTDPDAFDIWGQGTMVTVSS
VL: QSALTQPASVSGSPGQSITISCTGTSSDVGGYNYVSWYQQHPGKAPKLMIYDVSNRPSGVSNRFSGSKSGNTASLTISGLQAEDEADYYCSSYTSSSTFYVFGTGTKVTVLG
notes: human IgG1
B11: anti-mutCALR antibody clone 34 (antibody, human IgG1, lambda, V domains shown)
VH: QVQLVQSGAEVKKPGATVKISCKVSGYSFTDYFIHWVQQAPGKGLAWVGLVDPEDGETIYAEKFQGRVTITADTSTDTAYMELSSLRSEDTAVYYCATPGGILTDPDAFDIWGQGTMVTVSS
VL: QSALTQPASVSGSPGQSITISCTGTSSDVGGYNYVSWYQQHPGKAPKLMIYEVSNRPSGVSNRFSGSKSGNTASLTISGLQAEDEADYYCSSYTSSSTYVFGTGTKVTVLG
notes: human IgG1
B12: anti-mutCALR antibody clone 33 (antibody, human IgG1, lambda, V domains shown)
VH: QVQLVQSGAEVKKPGATVKISCKVSGYSFTDYFIHWVQQAPGKGLAWVGLVDPEDGETIYAEKFQGRVTITADTSTDTAYMELSSLRSEDTAVYYCATPGGILTDPDAFDIWGQGTMVTVSS
VL: QSALTQPRSVSGSPGQSVTISCAGTGSDVGGYNHVSWYQHHPGKAPKLMIYDVNKRPSGVPDRFSGSKSGNTASLTISGLQAEDEADYYCSSYIPSSTRWVFGGGTKLTVLG
notes: human IgG1
B13: anti-mutCALR antibody clone 35 (antibody, human IgG1, lambda, V domains shown)
VH: QVQLVQSGAEVKKPGATVKISCKVSGYSFTDYFIHWVQQAPGKGLAWVGLVDPEDGETIYAERFQGRVTITADTSTDTAYMELSSLRSEDTAVYYCATPGGILTDPDAFDIWGQGTMVTVSS
VL: QSALTQPASVSGSPGQSITISCTGTSSDVGGYNYVSWYQQHPGKAPKLMIYEVSNRPSGVSNRFSGSKSGNTASLTISGLQAEDEADYYCSSYTSSSTPYVFGTGTKVTVLG
notes: human IgG1
B14: anti-mutCALR antibody clone 28 (antibody, human IgG1, lambda, V domains shown)
VH: EVQLVQSGAEVKKPGASVKVSCKVSGYTLTELSMQWVRQAPGKGLEWMGGFDPDDGETMYAEKFQGRLTVTEDTSTDTVYMELRSLTSEDTALYFCATSPGYDFFDYWGQGTLVTVSS
VL: SYELTQPPSVSVAPGQTARITCGGNNIGSKSVHWYQQKPGQAPVLVVYDDSDRPSGIPERFSGSNSGNTATLTISRVEAGDEADYYCQVWDADSDQLIFGGGTKLTVLG
notes: human IgG1
B15: anti-mutCALR antibody clone 29 (antibody, human IgG1, lambda, V domains shown)
VH: EVQLVQSGAEVKKPGASVKVSCKVSGYTLTELSMQWVRQAPGKGLEWMGGFDPDDGETMYAEKFQGRLTVTEDTSTDTVYMELRSLTSEDTALYFCATSPGYDFFDYWGQGTLVTVSS
VL: SYVLTQPPSVSVAPGKTARITCGGNNIGSKSVHWYQQKPGQAPVLVVYDDSDRPSGIPERFSGSNSGNTATLTISRVEAGDEADYYCQVWDSSSDLLIFGGGAKLTVLG
notes: human IgG1
B16: anti-mutCALR antibody clone 11 (antibody, human IgG1, lambda, V domains shown)
VH: EVRLVQSGAEVKKPGASVKVSCKVSGYTLTELSMQWVRQAPGKGLEWMGGFDPDDGETMYAEKFQGRLTVTEDTSTDTVYMELRSLTSEDTALYFCATSPGYDFFDYWGQGTLVTVSS
VL: QSALTQPRSVSGSPGQSVTISCTGTSSDVGGYNYVSWYQQHPGKAPKLMIYDVSKRPSGVPDRFSGSNSGNTATLTINRVEAGDEADYYCQVWDSSNDLLIFGGGTKLTVLG
notes: human IgG1
B17: anti-mutCALR antibody clone 30 (antibody, human IgG1, lambda, V domains shown)
VH: EVQLVQSGAEVKKPGASVKVSCKVSGYTLTELSMQWVRQAPGKGLEWMGGFDPDDGETMYAEKFQGRLTVTEDTSTDTVYMELRSLTSEDTALYFCATSPGYDFFDYWGQGTLVTVSS
VL: SYVLTQPPSVSVAPGKTATITCGGNNIGTKSVHWYQQKPGQAPVLVVYDDSDRPSGIPERFSGSNSGNTATLTINRVEAGDEADYYCQVWDSSNDLLIFGGGTKLTVLG
notes: human IgG1

For one test, the target named is T1, Recombinant MBP-mutCALR Type 1 fusion protein (human).
T1 construct: custom made at Cepter; also called recombinant mutCALR protein
The test can be described thus: SPR, IgG captured, 1:1 fit, Exp. 1. The protocol:
Experiment 1: Recombinant MBP-mutCALR Type 1 fusion protein was custom made at Cepter (cepterbiopartners.com). Data for the interaction of antibodies with recombinant MBP-mutCALR Type 1 fusion protein were collected at 25° C. on a Biacore 8K instrument (Cytiva, Marlborough, Mass.), and all reagents were obtained from Cytiva unless otherwise specified. The experiments were conducted using Tris-buffered saline (pH 7.2), 0.005% Surfactant P20, 1 mM CaCl₂) as running buffer. To prepare the capture surfaces, anti-human IgG (Fc) antibodies (Product #29234600) was amine-coupled onto a CM4 chip (Product #BR100534) under standard conditions using an Amine Coupling Kit (Product #BR100050). […] The kinetics parameters were obtained by applying 1:1 binding model to fit the data from multiple-cycle injection experiments using Biacore Insight Evaluation software.
In general terms: In SPR one partner is held on a chip, and binding of the other changes the refractive index at the surface.
With B1, the Kd amounted to 1.64 nM, the koff was found to be 0.000297 s⁻¹ and the kon is 181000 M⁻¹ s⁻¹.
For the molecule B2, the Kd stood at 3.61 nM, the koff came out at 0.000669 s⁻¹ and the kon worked out at 185000 M⁻¹ s⁻¹.
The matching figures for B3: 3.62 nM, 0.000772 s⁻¹ and 213000 M⁻¹ s⁻¹.
The matching figures for B4: 3.84 nM, 0.00101 s⁻¹ and 263000 M⁻¹ s⁻¹.
On the same counts, the results for B5 are 5.13 nM, 0.0011 s⁻¹ and 214000 M⁻¹ s⁻¹.
In the case of B6, the Kd turned out to be 1.76 nM.
Regarding B7, the Kd was found to be 2.1 nM, the koff turned out to be 0.00268 s⁻¹ and the kon came out at 1.28e+06 M⁻¹ s⁻¹.
The matching figures for B8: 5.59 nM, 0.0018 s⁻¹ and 322000 M⁻¹ s⁻¹.
On the same counts, the results for B9 are 1.04 nM, 0.00538 s⁻¹ and 5.17e+06 M⁻¹ s⁻¹.
With B10, the Kd was determined as 9.88 nM, the koff came to 0.00212 s⁻¹ and the kon was 215000 M⁻¹ s⁻¹.
On the same counts, the results for B11 are 2.56 nM, 0.00581 s⁻¹ and 2.27e+06 M⁻¹ s⁻¹.
The matching figures for B12: 16.2 nM, 0.0126 s⁻¹ and 775000 M⁻¹ s⁻¹.
On the same counts, the results for B13 are 2.82 nM, 0.00599 s⁻¹ and 2.13e+06 M⁻¹ s⁻¹.
On to B14, for which the Kd turned out to be 19.5 nM, the koff is 0.00897 s⁻¹ and the kon is 460000 M⁻¹ s⁻¹.
As for B15, the Kd amounted to 8.16 nM, the koff is 0.00561 s⁻¹ and the kon stood at 688000 M⁻¹ s⁻¹.
For the molecule B16, the Kd came to 10.2 nM, the koff stood at 0.00524 s⁻¹ and the kon amounted to 514000 M⁻¹ s⁻¹.
B17: the Kd was 12.8 nM, the koff came out at 0.00295 s⁻¹ and the kon was found to be 231000 M⁻¹ s⁻¹.

The target of a further test is T1, Recombinant MBP-mutCALR Type 1 fusion …. In words: SPR, IgG captured, 1:1 fit, Exp. 2. The method in brief: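 Antibodies captured via amine-coupled anti-human IgG (Fc) on a CM4 chip; recombinant MBP-mutCALR Type 1 fusion protein as analyte. Run at 25 °C in Tris-buffered saline pH 7.2, 0.005% P20, 1 mM CaCl₂. Multiple-cycle kinetics fitted to a 1:1 binding model.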
Take B9: the Kd was 0.352 nM, the koff turned out to be 0.00121 s⁻¹ and the kon was found to be 3.44e+06 M⁻¹ s⁻¹.

As a reminder, the Kd is the constant that tells how readily two partners part at equilibrium. Usually koff stands for the rate constant with which the complex falls apart. Usually kon stands for the second-order rate constant of association.
